assay: soluble on expression in E. coli; label from the status in PepcDB or PDB records

Sequence	soluble on expression in E. coli
MEAPEFKDFAKTMVDFIAEYLENIRERRVLPEVKPGYLKPLIPDAAPEKPEKWQDVMQDIERVIMPGVTHWHSPKFHAYFPTANSYPAIVADMLSGAIACIGFTWIASPACTELEVVMMDWLGKMLELPAEFLACSGGKGGGVIQGTASESTLVALLGAKAKKLKEVKELHPEWDEHTILGKLVGYCSDQAHSSVERAGLLGGVKLRSVQSENHRMRGAALEKAIEQDVAEGLIPFYAVVTLGTTNSCAFDYLDECGPVGNKHNLWIHVDAAYAGSAFICPEYRHLMKGIESADSFNFNPHKWMLVNFDCSAMWLKDPSWVVNAFNVDPLYLKHDMQGSAPDYRHWQIPLGRRFRALKLWFVLRLYGVENLQAHIRRHCNFAKQFGDLCVADSRFELAAEINMGLVCFRLKGSNERNEALLKRINGRGHIHLVPAKIKDVYFLRMAICSRFTQSEDMEYSWKEVSAAADEMEQEQ	soluble
MEAPTVLDVGCGDGARTLANLPPRSVGLDFSRAGLDLAAETVPDSRLVQGDMGSLPVTTDSVDAITAYHAVFHVQRDQHPEVYREFARVLRPGGTVLMTLPSGQFETVRRGWMGGSMFFSAPGRRATLDQLADAGFTETETVTATDPLGSDSEFVFATLADALEHHHHHH	not soluble
MEASEEVTMVNKGDDGKSGIRYYTTIEELSRAINAGLSLQDRRMSEEEAMEAAEHIINFFGYNDRVIDNMLEPEDRDSFYTMEDIGILQTEREETTLFDGREWRIHYWILNINKIMELANMQVDYKKKITNDEYKIYDEIPDDYWKVVE	not soluble
MEDESSAKYPYRESMPRAERVSMKALQDEWRHLFITRAEGENNIHNPKIPEDTNDFDDDMPIECNESEEESITGDREVFSVHHNEEDEDQEDSSQICEESEPQELPKLCRRTDKHFKELPSGLINIIKDLSLDISGLYLPQTLLTGRIDLNDEFVASIEVEDAEKSKEILRRRRERPLALRQFSHALSRAMANLRTYHYDVTTEKIERCPMRNSCKGHLKWEQMRKYRAQCKKNFKDPSLATVEDMMSK	not soluble
MEDIENIEEDEYGFSRNYFLAKELGGASKRSAHKLSDIHIVDEQELRETASTIEMKHSKEISELMSDYKTMYSKWVFELRCGFGLLMYGFGSKKALVEDFASASLTDYSVVVINGYLPSVNLKQVLLALAELLSELLKCKRKSSGSLSKGQETFPSRSMDDILSFLHGPQSGDKDCFICVVVHNIDGPALRDPESQQTLARLSSCSHIRLVASIDHVNAPLLWDKKMVHKQFNWLWHHVPTFAPYNVEGVFFPLVLAQGSTAQTAKTAAIVLQSLTPNGQNVFKILAEYQLSHPDEDGMPTDDLYSASRERFFVSSQVTLNSHLTEFKDHELVKTKRNSDGQECLNIPLTSDAIRQLLLDLNQ	not soluble
MEDIIFGKRSNVFDVNPENTVFVLIAGTSEVSTVPGITSAGATPELTRLTPAIDSEIIGEGKCLSSKDPPMTPEGIPTPAIVTKAILSLTNIRYIIVNGGFYAKPKTPFIETGLKPSNNPAVKTAIEDLDAAIHAGEHIGRLLDGVFENIILAESVPGGTTTAYAVLKAIGINAKTSSSMKEDPFSIKEKIAEMSFRRKLEKSPLGAVKEYGDNMMAVSLGISSSVKRSKIIFGGGTQMATVMYLDRLINGMRDRYISTTGWVYYHRTELFSDLGLSDYLAVSAMDFSGMKHPGLRYYQYGHVREGTGMGAAFLLARLMNFEAEAIYKSVDDFYEQFI	not soluble
MEDYIKNWNKIISNCSFDNTYKMAWAKAIVETAISKDIDSALIISFEEIAELFLKYYWNQTIYFNLTQGSSLKKIPEALKYTKNLIDLYYAKKGDYFPQRYEKIIFEDFGIESEKNKTIKKIVKTLGQDVSWRFMNLSGETYPLYELVENQVVLSLENAKLLKKYSDFLFPMINYRWTQMLESFNHSPRISSKVRAIDEDSIKKRNNLNKFREFLDLEFSDNKRYCFYCGKEIVDDDLTIDHVIPWSFMYSDDIWNLVYCHRSENSSKSNRIPEETDVKALECRNKLLLEKLTENKISSKRVDELQLAIEKDYVKKFWISSRGLEHHHHHH	not soluble
MEEKQILCVGLVVLDVISLVDKYPKEDSEIRCLSQRWQRGGNASNSCTVLSLLGAPCAFMGSMAPGHVADFLVADFRRRGVDVSQVAWQSKGDTPSSCCIINNSNGNRTIVLHDTSLPDVSATDFEKVDLTQFKWIHIEGRNASEQVKMLQRIDAHNTRQPPEQKIRVSVEVEKPREELFQLFGYGDVVFVSKDVAKHLGFQSAEEALRGLYGRVRKGAVLVCAWAEEGADALGPDGKLLHSDAFPPPRVVDTLGAGDTFNASVIFSLSQGRSVQEALRFGCQVAGKKCGLQGFDGIV	soluble
MEETNAFSAFNQLLMSQNVVSPTKQPMELTNEKLMEFVRNAMQNQQGLPEVPNIIPSALPSMLSQIPTQPMPQMPVVIQTSQMNDVMGDQMLKASPSASSDMSSLDSDVADHPMTMMMQQQQDFQNPLQQLTIDSSANIAAGVNGNTEQRSSGRHETWLECFNTTKFAEYEALLFSVYVAERTDRKYDGWTYFDCLHRLQSKCRYRVRAKKQDEFYIIEEKGVHNHGAVEPVGQAGSHAGLPKTIREIVDRSYNENWPVEARTIKVDEEIQRLGLPENPRLGRQIDNRLAYLRRVKNLHETRRIQDQVNGTMVIKDPVKEAMLQALMEQNGGQLTVGQGFVDQIIANQGIPEMPIKKEEPTQPVESMEMAEQVAKPLAMNPSPDFFQFLQNQKLSHEHEQQQQQLHAAILAQAQAHAQAQAQAQQNLMESQKNIHQ	not soluble
MEFQKKKQKVIQVKEIKFRPGTDEGDYQVKLRSLIRFLEEGDKAKITLRFRGREMAHQQIGMEVLNRVKDDLQELAVVESFPTKIEGRQMIMVLAPKKKQ	soluble
MEFREQVLNLLAEVAENDIVKENPDVEIFEEGIIDSFQTVGLLLEIQNKLDIEVSIMDFDRDEWATPNKIVEALEELR	not soluble
MEGERMNAFPSTMMDEELNLWDFLERAAALFGRKEVVSRLHTGEVHRTTYAEVYQRARRLMGGLRALGVGVGDRVATLGFNHFRHLEAYFAVPGMGAVLHTANPRLSPKEIAYILNHAEDKVLLFDPNLLPLVEAIRGELKTVQHFVVMDEKAPEGYLAYEEALGEEADPVRVPERAACGMAYTTGTTGLPKGVVYSHRALVLHSLAASLVDGTALSEKDVVLPVVPMFHVNAWCLPYAATLVGAKQVLPGPRLDPASLVELFDGEGVTFTAGVPTVWLALADYLESTGHRLKTLRRLVVGGSAAPRSLIARFERMGVEVRQGYGLTETSPVVVQNFVKSHLESLSEEEKLTLKAKTGLPIPLVRLRVADEEGRPVPKDGKALGEVQLKGPWITGGYYGNEEATRSALTPDGFFRTGDIAVWDEEGYVEIKDRLKDLIKSGGEWISSVDLENALMGHPKVKEAAVVAIPHPKWQERPLAVVVPRGEKPTPEELNEHLLKAGFAKWQLPDAYVFAEEIPRTSAGKFLKRALREQYKNYYGGA	soluble
MEGGMKRVVLAFGTRPEATKMAPVYLALRGIPGLKPLVLLTGQHREQLRQALSLFGIQEDRNLDVMQERQALPDLAARILPQAARALKEMGADYVLVHGDTLTTFAVAWAAFLEGIPVGHVEAGLRSGNLKEPFPEEANRRLTDVLTDLDFAPTPLAKANLLKEGKREEGILVTGQTGVDAVLLAAKLGRLPEGLPEGPYVTVTMHRRENWPLLSDLAQALKRVAEAFPHLTFVYPVHLNPVVREAVFPVLKGVRNFVLLDPLEYGSMAALMRASLLLVTDSGGLQEEGAALGVPVVVLRNVTERPEGLKAGILKLAGTDPEGVYRVVKGLLENPEELSRMRKAKNPYGDGKAGLMVARGVAWRLGLGPRPEDWLP	soluble
MEGIDHLADERNKAEFDVEDMKIVWAGSRHAFEVSDRIARLVASDPVFEKSNRARLSRKELFKSTLRKCAHAFKRIIELRLNEEEAGRLRHFIDQPAYVDLHWGMFVPAIKGQGTEEQQKKWLSLANKMQIIGCYAQTELGHGSNVQGLETTATLDPKTDEFVIHTPTQTASKWWPGGLGKVSTHAVVYARLITNGKDYGIHGFIVQLRSLEDHSPLPNITVGDIGTKMGNGAYNSMDNGFLMFDHVRIPRDQMLMRLSKVTREGEYVPSDVPKQLVYGTMVYVRQTIVADASNALSRAVCIATRYSAVRRQFGAHNGGIETQVIDYKTQQNRLFPLLASAYAFRFVGEWLKWLYTDVTERLAASDFATLPEAHACTAGLKSLTTTATADGIEECRKLCGGHGYLWCSGLPELFAVYVPACTYEGDNVVLQLQVARFLMKTVAQLGSGKVPVGTTAYMGRAAHLLQCRSGVQKAEDWLNPDVVLEAFEARALRMAVTCAKNLSKFENQEQGFQELLADLVEAAIAHCQLIVVSKFIAKLEQDIGGKGVKKQLNNLCYIYALYLLHKHLGDFLSTNCITPKQASLANDQLRSLYTQVRPNAVALVDAFNYTDHYLNSVLGRYDGNVYPKLFEEALKDPLNDSVVPDGYQEYLRPVLQQQL	soluble
MEGIPGQRDGVYWLPPAEDGKDPATPWWLCSPLHVLAETRDASQSNWGRLLEWRDNDGHPHRWACPVEMLAASDTAEFRRELVRGGLTMSTSQKARQKLVDYVLSHRQAAATRLRCVSRIGWHDVRYVLPGEVHGEQDGEGVIYQGADSGDFDRAGTLQEWQTHIAAAAAGNSRIVFAISVAFAGVLADMAGESGGGFHFVGTTSKGKTSTLLDPAASVWGNPDQFAKKWRTTQNGLEGLCLGRNDNLLILDELAQIAPADAGGAAYLIANGQAKARMTKEGGNRPAHTWRVMLLSAGEIDLAQHMAEAGKSAKGGQIARLPAIPADAGAGMGTLEQLHQHPSGQAFADAMKAYSRQYYGTAGPAFLAALTPPECMDEIRRDIKDGVTGLIEYLGVPAGAAQEVGRVAARFALVAFAGELATRYGVTGWKPGEAVQAARRCFREWLAENHTGMAADDRALFAQVSGFMQTHSSTRFPPHDAAPEVLARYLNRAGFTFIDEQGTQQFWVLSEPFKKELCRGYTPLIAARSLLRAGWLLAGDTEGNTRRHTRKKRIKALDSATVNVYVLTSTVLEGEELEHHHHHH	not soluble
MEGLKLSEAELMIFIHPSQSRNVFQGICRELSSLLFQYNETFDGVLLAYDATVKSKQAKILTGLHPYFGVRVNTRLLLFDPKPKSFVEGKIVKISPESIHVIVLGFSAAVITDVDIREEFKYRVRDGEGSFVSRSHKRHALKLGTMLRLQVQSFDEEVMHIAGSLLPENTGCVKWLEKKSEEALPTDRDHKRRKLA	not soluble
MEGSVSEFLTVRLSSQKEADIPWLVWSAEQQEVIASGQVAGWEALHEIESYADQRSVVVLLAASDLILTSVEIPPGASRQLENMLPYLLEDEIAQDVEDVHFCVLSKGRETADVVGVDRLWLRACLDHLKACGFDVKRVLPDVLAIPRPEHGLAALQLGDEWLVRKSTTQGMAVDAQWLSLLAASDWVQNEGEYLPLQALTPLPELSLAETQEWRYEPSGLVMQLLTQEALTSKFNLLTGSFKLKSLEHHHHHH	soluble
MEGTMTCIYESVITGVGSEVQYFIEENMVVIFNDTVPDDLKSIGVIHKHTELQADVAAGDVLEVNGACFRILFVGDKVNDTLREIGHCTIAFNGETNADLPGTLCVEKKPLPDFVTGATIKFIKE	not soluble
MEGVKKIKNPSTVKDELLELMFRIYRSTNGKYPALEWVKRKPNPNDFNGFREVYEPFLKFRLSQEFDELYTYQKDNRIIGTIALVYKRIKEKGIWWVPEELMNEKVGLIEFFVVDPEFQGKGIGSTLLEFAVKRLRSLGKDPYVVTFPNLEAYSYYYMKKGFREIMRYKEFVILKFNHKKFQLEHHHHHH	soluble

Reference: the DeepSol protein solubility set
